According to PMC12289762, “A prevalent MOCS2 variant in the Roma population is associated with a novel mild form of molybdenum cofactor deficiency” (European Journal of Pediatrics, 2025):

T1: MOCS2B wild-type (large subunit of MPT synthase) (human, UniProt O96007 1-188)
T1 construct: MOCS2B, large subunit of molybdopterin (MPT) synthase, human; encoded by MOCS2 transcript variant 3 (NM_004531.5); Cloned into pET15b, a vector that can add an N-terminal His tag; also called MOCS2B WT; WT MOCS2B; source: Escherichia coli BL21 (pET15b), purified (ammonium sulfate precipitation, size exclusion chromatography on Superdex 200)
T1 sequence (looked up): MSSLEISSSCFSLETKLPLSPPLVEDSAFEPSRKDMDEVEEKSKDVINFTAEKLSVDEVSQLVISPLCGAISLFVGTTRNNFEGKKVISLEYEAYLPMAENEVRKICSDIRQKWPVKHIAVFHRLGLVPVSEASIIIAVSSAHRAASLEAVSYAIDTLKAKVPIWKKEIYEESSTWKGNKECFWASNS

T2: MOCS2B p.Leu19Phe variant (human, UniProt O96007 1-188, p.Leu19Phe)
T2 construct: MOCS2B, large subunit of molybdopterin (MPT) synthase, human, patient variant c.57A>T (NM_004531.5; p.Leu19Phe), rs776441627; Variant found in patients (natural variant); Cloned into pET15b; also called MOCS2B L19F; MOCS2B Leu19Phe; source: Escherichia coli BL21 (pET15b), purified (ammonium sulfate precipitation, size exclusion chromatography on Superdex 200)
T2 sequence (looked up): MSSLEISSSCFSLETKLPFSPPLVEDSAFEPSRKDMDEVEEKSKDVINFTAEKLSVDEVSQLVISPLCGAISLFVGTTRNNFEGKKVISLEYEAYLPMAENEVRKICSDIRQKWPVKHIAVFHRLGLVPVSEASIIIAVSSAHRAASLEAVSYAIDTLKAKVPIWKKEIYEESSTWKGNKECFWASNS


Assays:
[1] = target: T1, MOCS2B wild-type (large subunit of MPT …); assay: ITC; VP-ITC; 20-50 uM MOCS2B in the sample cell (1.5 mL), 200-500 uM MOCS2A in the syringe; 10 mM Tris-HCl, 250 mM NaCl, pH 8.0; n = 3 experiments; details: both partners purified
[2] = target: T2, MOCS2B p.Leu19Phe variant; assay: as above; details: both partners purified
[3] = target: T2, MOCS2B p.Leu19Phe variant; assay: cell-based or functional assay

| Kd [1] | stoichiometry N [1] | Kd [2] | in vitro MPT synthesis activity (500 pmol cPMP, 200 pmol MOCS2B, 0-500 pmol MOCS2A; HPLC Form A method), relative to WT MOCS2A/B [3] | Binder |
| --- | --- | --- | --- | --- |
| 359 ± 47 nM | 1.15 ± 0.2 | 114 ± 16 nM | – | MOCS2A wild-type (small subunit of MPT synthase) (natural protein, human, UniProt O96033 1-88, looked up, thiocarboxylated C-terminal tail, MOCS2A, small subunit of molybdopterin (MPT) synthase, human; encoded by MOCS2 transcript variant 1 (NM_176806.4); also called MOCS2A WT; WT MOCS2A) MVPLCQVEVLYFAKSAEITGVRSETISVPQEIKALQLWKEIETRHPGLADVRNQIIFAVRQEYVELGDQLLVLQPGDEIAVIPPISGG |
| 2800 ± 300 nM | – | 7400 ± 2100 nM | ~20 % of WT | MOCS2A p.Ile82Phe variant (natural protein, human, UniProt O96033 1-88, looked up, thiocarboxylated C-terminal tail, MOCS2A, small subunit of molybdopterin (MPT) synthase, human, patient variant c.244A>T (NM_176806.4; p.Ile82Phe), rs776441627; Variant found in patients (natural variant); also called MOCS2A I82F; MOCS2 p.Ile82Phe) MVPLCQVEVLYFAKSAEITGVRSETISVPQEIKALQLWKEIETRHPGLADVRNQIIFAVRQEYVELGDQLLVLQPGDEIAVFPPISGG |
